Experimental data: patent US20080020978A1 (Amgen, published 2008)
Square brackets hold non-standard residues; d marks the D form. Ends that are not written are not given here.

B1: SEQ ID NO 12 (peptide)
peptide: Ac-WVTHRLAGLLSRSGGVVKNNFVPTDVGPFAF-NH2
modifications: not fully specified (residue 18); printed as Ac-WVTHRLAGLLSRSGGVVKNNFVPTDVGPFAF-NH2
B2: SEQ ID NO 38 (peptide)
peptide: Ac-WVTHRLAGLLSQSGGVVRKNFVPTDVGPFAF-NH2
modifications: not fully specified (residue 19); printed as Ac-WVTHRLAGLLSQSGGVVRKNFVPTDVGPFAF-NH2
B3: SEQ ID NO 36 (peptide)
peptide: Ac-WVTHRLAGLLSQSGGVVRCNFVPTDVGPFAF-NH2
modifications: not fully specified (residue 19); printed as Ac-WVTHRLAGLLSQSGGVVRCNFVPTDVGPFAF-NH2
B4: SEQ ID NO 16 (peptide)
peptide: Ac-WVTHRLAGLLSRSGGVVRKNFVPTDVGPFAF-NH2
modifications: not fully specified (residue 19); printed as Ac-WVTHRLAGLLSRSGGVVRKNFVPTDVGPFAF-NH2
B5: SEQ ID NO 15 (peptide)
peptide: Ac-WVTHRLAGLLSRSGGVVRKNFVPTDVGPFAF-NH2
modifications: not fully specified (residue 19); printed as Ac-WVTHRLAGLLSRSGGVVRKNFVPTDVGPFAF-NH2
B6: SEQ ID NO 18 (peptide)
peptide: Ac-WVTHRLAGLLSRSGGVCRNNFVPTDVGPFAF-NH2
modifications: not fully specified (residue 17); printed as Ac-WVTHRLAGLLSRSGGVCRNNFVPTDVGPFAF-NH2
B7: SEQ ID NO 13 (peptide)
peptide: Ac-WVTHRLAGLLSRSGGVVKNNFVPTDVGPFAF-NH2
modifications: not fully specified (residue 18); printed as Ac-WVTHRLAGLLSRSGGVVKNNFVPTDVGPFAF-NH2
B8: SEQ ID NO 20 (peptide)
peptide: CGGGGGGGVTHRLAGLLSRSGGVVKNNFVPTDVGPFAF-NH2
modifications: not fully specified (residue 1); printed as CGGGGGGGVTHRLAGLLSRSGGVVKNNFVPTDVGPFAF-NH2
B9: SEQ ID NO 42 (peptide)
peptide: Ac-WVTHRLAGLLS[dR]SGGVVRCNFVPTDVGPFAF-NH2
modifications: not fully specified (residue 19); printed as Ac-WVTHRLAGLLSrSGGVVRCNFVPTDVGPFAF-NH2
B10: SEQ ID NO 14 (peptide)
peptide: Ac-WVTHRLAGLLSRSGGVVCNNFVPTDVGPFAF-NH2
modifications: not fully specified (residue 18); printed as Ac-WVTHRLAGLLSRSGGVVCNNFVPTDVGPFAF-NH2
B11: SEQ ID NO 19 (peptide)
peptide: Ac-WVTHRLAGLLSRSGGVKRNNFVPTDVGPFAF-NH2
modifications: not fully specified (residue 17); printed as Ac-WVTHRLAGLLSRSGGVKRNNFVPTDVGPFAF-NH2
B12: SEQ ID NO 17 (peptide)
peptide: Ac-WVTHRLAGLLSRSGGVVRCNFVPTDVGPFAF-NH2
modifications: not fully specified (residue 19); printed as Ac-WVTHRLAGLLSRSGGVVRCNFVPTDVGPFAF-NH2

Each binder was assayed against T1, CGRP1 receptor (CRLR/RAMP1 complex) of human neuroblastoma SK-N-MC cells (human, UniProt Q16602 23-461; O60894 27-148) (assay: cell-based or functional assay).
T1 sequence (Q16602 23-461, chain 1 of 2): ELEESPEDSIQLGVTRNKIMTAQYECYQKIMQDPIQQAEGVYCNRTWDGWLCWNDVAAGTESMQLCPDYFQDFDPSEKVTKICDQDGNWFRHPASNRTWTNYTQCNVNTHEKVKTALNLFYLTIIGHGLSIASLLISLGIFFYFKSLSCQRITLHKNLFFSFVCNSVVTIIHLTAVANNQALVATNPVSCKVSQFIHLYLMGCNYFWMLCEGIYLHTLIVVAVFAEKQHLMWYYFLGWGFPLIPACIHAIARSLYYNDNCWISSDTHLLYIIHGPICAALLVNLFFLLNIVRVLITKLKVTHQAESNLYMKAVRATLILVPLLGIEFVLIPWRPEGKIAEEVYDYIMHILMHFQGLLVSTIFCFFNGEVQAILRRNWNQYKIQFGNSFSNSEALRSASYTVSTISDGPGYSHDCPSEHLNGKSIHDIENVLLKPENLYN
T1 sequence (O60894 27-148, chain 2 of 2): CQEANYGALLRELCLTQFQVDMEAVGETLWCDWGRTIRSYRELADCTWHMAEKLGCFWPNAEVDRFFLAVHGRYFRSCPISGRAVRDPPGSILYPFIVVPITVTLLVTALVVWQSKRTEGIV

Binder	fold loss of antagonist activity against SEQ ID NO:5 [fold]	fold change in potency against SEQ ID NO:36 [fold]	fold loss of antagonist activity against SEQ ID NO:35 [fold]	fold change in potency against SEQ ID NO:1 [fold]	fold loss of antagonist activity against SEQ ID NO:7 [fold]	fold change in potency against SEQ ID NO:9 [fold]	fold loss of antagonist activity against SEQ ID NO:21 and 23 [fold]	fold loss of potency against SEQ ID NO:27 and 29 [fold]	fold loss of potency against SEQ ID NO:3 [fold]	fold loss of antagonist activity against SEQ ID NO:41 [fold]
B1	> 15	–	–	–	–	–	–	–	–	–
B2	–	> 42	–	–	–	–	–	–	–	–
B3	–	–	> 12	–	–	–	–	–	–	–
B4	–	–	–	~12	~3	–	–	–	–	–
WVTHRLAGLLSRSGGVVKNNFVPTNVGSKAF-NH2 [SEQ ID NO 4]	–	–	–	> 7	–	–	–	–	–	–
B5	–	–	–	~12	~3	–	–	–	–	–
B6	–	–	–	~31	–	–	–	–	–	–
CGGGGGGGVTHRLAGLLSRSGGVVKNNFVPTDVGPFAF-NH2 [SEQ ID NO 3]	–	–	–	> 6	–	–	–	–	–	–
B7	> 15	–	–	–	–	–	–	–	–	–
Ac-WVTHRLAGLLSRSGGVVRCNFVPTDVGPFAF-NH2 [SEQ ID NO 8]	–	–	–	–	–	> 4	–	–	–	–
WVTHXLAGLLSXSGGVVRKNFVPTDVGPFAF (Ac-WVTH(hR)LAGLLS(hR)SGGVVRKNFVPTDVGPFAF-NH2) [SEQ ID NO 25]	–	–	–	–	–	–	~5	–	–	–
WVTHXLAGLLSXSGGVVRKNFVPTDVGPFAF (Ac-WVTH(Cit)LAGLLS(Cit)SGGVVRKNFVPTDVGPFAF-NH2) [SEQ ID NO 31]	–	–	–	–	–	–	–	~3	–	–
B8	–	–	–	–	–	–	–	–	> 190	–
B9	–	–	–	–	–	–	–	–	–	> 32

The binders below were run against T2, rat ortholog of the CGRP1 receptor (rat, UniProt Q63118 24-464; Q9JJ74 27-148, limits assumed) (assay: cell-based or functional assay).
T2 sequence (Q63118 24-464 limits assumed, chain 1 of 2): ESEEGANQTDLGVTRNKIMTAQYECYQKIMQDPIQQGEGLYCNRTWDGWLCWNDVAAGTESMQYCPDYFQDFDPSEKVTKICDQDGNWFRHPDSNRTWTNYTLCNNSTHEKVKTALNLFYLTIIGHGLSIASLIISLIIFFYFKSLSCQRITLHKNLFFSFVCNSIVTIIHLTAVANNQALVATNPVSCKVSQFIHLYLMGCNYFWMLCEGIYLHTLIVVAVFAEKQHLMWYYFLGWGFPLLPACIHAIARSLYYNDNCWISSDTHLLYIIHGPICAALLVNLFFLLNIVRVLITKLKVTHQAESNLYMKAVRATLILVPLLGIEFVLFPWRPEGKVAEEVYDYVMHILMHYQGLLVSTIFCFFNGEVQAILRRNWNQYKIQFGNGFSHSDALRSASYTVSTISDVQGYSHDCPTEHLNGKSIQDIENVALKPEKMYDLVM
T2 sequence (Q9JJ74 27-148 limits assumed, chain 2 of 2): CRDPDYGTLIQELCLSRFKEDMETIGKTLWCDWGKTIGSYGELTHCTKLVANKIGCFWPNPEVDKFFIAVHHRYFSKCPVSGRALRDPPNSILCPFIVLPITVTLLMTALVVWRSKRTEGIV

Binder	fold loss of potency against SEQ ID NO:31 [fold]
WVTHXLAGLLSXSGGVVRKNFVPTDVGPFAF (Ac-WVTH[Cit]LAGLLS[Cit]SGG VVRK^(20 kDa MeO-PEG)NFVPTDVGPFAF-amide) [SEQ ID NO 791]	~9

Target: T1, CGRP1 receptor (CRLR/RAMP1 complex) of …
Experiment: cell-based or functional assay
Remark: another data set of the same source

Binder	IC50 [nM]
WVTHXLAGLLSXSGGVVRKNFVPTDVGPFAF (Ac-WVTH[Cit]LAGLLS[Cit]SGG VVRK^(20 kDa MeO-PEG)NFVPTDVGPFAF-amide) [SEQ ID NO 791]	3.74
Ac-WVTHRLAGLLSRSGGVVRK(20 kDa MeO‑PEG)NFVPTDVGPFAF-NH2 [SEQ ID NO 809]	0.32

Target: T1, CGRP1 receptor (CRLR/RAMP1 complex) of …
Experiment: cell-based or functional assay
Remark: another data set of the same source

Binder	IC50 [nM]
CGGGGGGGPTDVGPFAF-NH2 [SEQ ID NO 45]	56.6
Ac-WVTHRLAGLLSRSGGVVRKNFVPTDVGPFAF-NH2 [SEQ ID NO 7]	0.13
Ac-WVTHRLAGLLSRSGGVVCNNFVPTDVGPFAF-NH2 [SEQ ID NO 9]	2.15
WFVPTDVGPFAF-NH2 [SEQ ID NO 96]	21.7
WVTHRLAGLLSRSGGVVKNNFVPTNVGSKAF-NH2 [SEQ ID NO 4]	0.64
CGGGGGGGVTHRLAGLLSRSGGVVKNNFVPTNVGSKAF-NH2 [SEQ ID NO 2]	21.1
CGGGGGGGVTHRLAGLLSRSGGVVKNNFVPTDVGPFAF-NH2 [SEQ ID NO 3]	0.72
Ac-VTHRLAGLLSRSGGVVRKNFVPTDVGPFAF-NH2 [SEQ ID NO 6]	0.7
Ac-WVTHRLAGLLSRSGGVKRNNFVPTDVGPFAF-NH2 [SEQ ID NO 11]	0.51
Ac-WVTHRLAGLLSRSGGVVRCNFVPTDVGPFAF-NH2 [SEQ ID NO 8]	0.5
Ac-WVTHRLAGLLSRSGGVCRNNFVPTDVGPFAF-NH2 [SEQ ID NO 10]	0.36

Target: T1, CGRP1 receptor (CRLR/RAMP1 complex) of …
Experiment: cell-based or functional assay
Remark: another data set of the same source

Binder	IC50 [nM]
Ac-WVTHRLAGLLSRSGGVVRKNFVPTDVGPFAF-NH2 [SEQ ID NO 7]	0.13
Ac-WVTHRLAGLLSRSGGVVCNNFVPTDVGPFAF-NH2 [SEQ ID NO 9]	2.15
B1	3.05
B4	0.39
B10	2.2
B5	0.42
B6	0.16
CGGGGGGGVTHRLAGLLSRSGGVVKNNFVPTDVGPFAF-NH2 [SEQ ID NO 3]	0.72
B7	2.15
Ac-WVTHRLAGLLSRSGGVKRNNFVPTDVGPFAF-NH2 [SEQ ID NO 11]	0.51
B11	0.98
Ac-WVTHRLAGLLSRSGGVVRCNFVPTDVGPFAF-NH2 [SEQ ID NO 8]	0.5
B12	1.9
Ac-WVTHRLAGLLSRSGGVCRNNFVPTDVGPFAF-NH2 [SEQ ID NO 10]	0.36
B8	138

Target: T1, CGRP1 receptor (CRLR/RAMP1 complex) of …
Experiment: cell-based or functional assay
Remark: another data set of the same source

Binder	IC50 [nM]
B2	0.11
B3	4.69
WVTHXLAGLLSXSGGVVRKNFVPTDVGPFAF (Ac-WVTH(hR)LAGLLS(hR)SGGVVRKNFVPTDVGPFAF-NH2) [SEQ ID NO 25]	2.1
WVTHXLAGLLSXSGGVVRKNFVPTDVGPFAF (Ac-WVTH(Cit)LAGLLS(Cit)SGGVVRKNFVPTDVGPFAF-NH2) [SEQ ID NO 31]	1.8
B9	19.4

Target: T2, rat ortholog of the CGRP1 receptor
Experiment: cell-based or functional assay
Remark: another data set of the same source

Binder	in vitro IC50 (rat ortholog; nM) [nM]
WVTHXLAGLLSXSGGVVRKNFVPTDVGPFAF (Ac-WVTH[Cit]LAGLLS[Cit]SGG VVRK^(20 kDa MeO-PEG)NFVPTDVGPFAF-amide) [SEQ ID NO 791]	131
WVTHXLAGLLSXSGGVVXKNFVPTDVGPXAF (Ac-WVTH[Cit]LAGLLS[Cit]SGGVV[hArg]K(20 KPEGald)NFVPTDVGP[1-Nal]AF-NH2) [SEQ ID NO 173]	49.5
WVTHXLAGLLSXSGGVVXKNFVPTDVGPFAF (Ac-WVTH[Cit]LAGLLS[Cit]SGGVV[hArg]KNFVPTDVGPFAF-NH2) [SEQ ID NO 739]	8.9
Ac-WVTHRLAGLLSRSGGVVRKNFVPTDVGPFAF-NH2 [SEQ ID NO 808]	5.4
Ac-WVTHRLAGLLSRSGGVVRK(20 kDa MeO‑PEG)NFVPTDVGPFAF-NH2 [SEQ ID NO 809]	6.4

The binders below were run against T1, CGRP1 receptor (CRLR/RAMP1 complex) of … (assay: 125I-hαCGRP competition, SK-N-MC membranes).
Description: CGRP₁ binding experiments. […] The plates were incubated at room temperature for 2 hour with shaking at 60 rpm, then the contents of each well were filtered over 0.5% polyethyleneimine (PEI)-treated (at least one hour) GF/C 96-well filter plates. The GF/C filter plates were washed 6 times with ice-cold 50 mM Tris, pH 7.5 and dried in an oven at 55 C for 1 hour. The bottoms of the GF/C plates were then sealed, and 40 μl Microscint™ 20 was added to each well, then the tops of the GF/C plates were sealed with TopSeal™-A, a press-on adhesive sealing film, and the GF/C plates were counted with TopCount NXT (Packard). The data were analyzed by using ActivityBase (IDBS) or Prizm (GraphPad) software.

Binder	Ki [nM]
Ac-VTHRLAGLLSRSGGVVRKNFVPTDVGPFAF-NH2 [SEQ ID NO 6]	0.04
WVTHXLAGLLSXSGGVVRKNFVPTDVGPFAF (Ac-WVTH[Cit]LAGLLS[Cit]SGG VVRK^(20 kDa MeO-PEG)NFVPTDVGPFAF-amide) [SEQ ID NO 791]	1.83
WVTHXLAGLLSXSGGVVRKNFVPTDVGPFAF (Ac-WVTH(Cit)LAGLLS(Cit)SGGVVRKNFVPTDVGPFAF-NH2) [SEQ ID NO 31]	0.46
WVTHXLAGLLSXSGGVVXKNFVPTDVGPXAF (Ac-WVTH[Cit]LAGLLS[Cit]SGGVV[hArg]K(20 KPEGald)NFVPTDVGP[1-Nal]AF-NH2) [SEQ ID NO 173]	0.84
WVTHXLAGLLSXSGGVVXKNFVPTDVGPFAF (Ac-WVTH[Cit]LAGLLS[Cit]SGGVV[hArg]KNFVPTDVGPFAF-NH2) [SEQ ID NO 739]	0.53
